Positions count from the first letter of the chain named. In names and notes the source's numbering stands.
B1: Ndy1 fragment (aa 171-707): bacterially expressed mouse Ndy1 fragment containing the JmjC, CXXC and PHD domains (protein, UniProt Q6P1G2 171-707, looked up, fragment)
chain: MWPQHLKEKQTEATNALAEMKYPKVKKYCLMSVKGCFTDFHIDFGGTSVWYHVFRGGKIFWLIPPTLHNLALYEEWVLSGKQSDIFLGDRVERCQRIELKQGYTFFIPSGWIHAVYTPVDSLVFGGNILHSFNVPMQLRIYEIEDRTRVQPKFRYPFYYEMCWYVLERYVYCVTQRSYLTQEYQRELMLIDAPRKTSVDGFSSDSWLDMEEESCEQQPQEEEEEEEDKEEEGDGADKTPKPPTDDPTSPTSTPPEDQDSTGKKPKAPAIRFLKRTLSNESEESVKSTSMPTDDPKTPTGSPATEVSTKWTHLTEFELKGLKALVEKLESLPENKKCVPEGIEDPQALLEGVKNVLKEHVDDDPTLAITGVPVVSWPKKTAKNRVVGRPKGKLGPASAVKLAANRTTAGARRRRTRCRKCEACLRTECGECHFCKDMKKFGGPGRMKQSCIMRQCIAPVLPHTAVCLVCGEAGKEDTVEEEEGKFNLMLMECSICNEIIHPGCLKIKESEGVVNDELPNCWECPKCNHAGKTGKQKRG
B2: 171-707 Ndy1 fragment containing the Y221A mutation: Ndy1 fragment with Y221A mutation, which abolishes the demethylase activity (protein)
chain: B1 chain with Y51A
modifications: left off: small tags and cut ends
B3: Ndy1: JmjC domain-containing histone H3 demethylase, overexpressed from retroviral constructs or immunoprecipitated (protein, UniProt Q6P1G2 1-1309, looked up)
Lysine-specific demethylase 2B: MEAEKDSGRRLRAIDRQRYDENEDLSDVEEIVSVRGFSLEEKLRSQLYQGDFVHAMEGKDFNYEYVQREALRVPLVFRDKDGLGIKMPDPDFTVRDVKLLVGSRRLVDVMDVNTQKGTEMSMSQFVRYYETPEAQRDKLYNVISLEFSHTKLEHLVKRPTVVDLVDWVDNMWPQHLKEKQTEATNALAEMKYPKVKKYCLMSVKGCFTDFHIDFGGTSVWYHVFRGGKIFWLIPPTLHNLALYEEWVLSGKQSDIFLGDRVERCQRIELKQGYTFFIPSGWIHAVYTPVDSLVFGGNILHSFNVPMQLRIYEIEDRTRVQPKFRYPFYYEMCWYVLERYVYCVTQRSYLTQEYQRELMLIDAPRKTSVDGFSSDSWLDMEEESCEQQPQEEEEEEEDKEEEGDGADKTPKPPTDDPTSPTSTPPEDQDSTGKKPKAPAIRFLKRTLSNESEESVKSTSMPTDDPKTPTGSPATEVSTKWTHLTEFELKGLKALVEKLESLPENKKCVPEGIEDPQALLEGVKNVLKEHVDDDPTLAITGVPVVSWPKKTAKNRVVGRPKGKLGPASAVKLAANRTTAGARRRRTRCRKCEACLRTECGECHFCKDMKKFGGPGRMKQSCIMRQCIAPVLPHTAVCLVCGEAGKEDTVEEEEGKFNLMLMECSICNEIIHPGCLKIKESEGVVNDELPNCWECPKCNHAGKTGKQKRGPGFKYASNLPGSLLKEQKMNRDNKEGQEPAKRRSECEEAPRRRSDEHPKKVPADGILRRKSDDVHLRRKRKYEKPQELSGRKRASSLQTSPGSSSHLSPRPPLGSSLSPWWRSSLTYFQQQLKPGKEDKLFRKKRRSWKNAEDRLSLANKPLRRFKQEPEDDLPEAPPKTRESDQSRSSSPTAGPSTEGAEGPEEKKKVKMRRKRRLVNKELSKELSKELNHEIQKTESTLAHESQQPIKSEPESENDEPKRPLSHCERPHRFSKGLNGTPRELRHSLGPGLRSPPRVMSRPPPSASPPKCIQMERHVIRPPPISPPPDSLPLDDGAAHVMHREVWMAVFSYLSHRDLCVCMRVCRTWNRWCCDKRLWTRIDLNRCKSITPLMLSGIIRRQPVSLDLSWTNISKKQLSWLINRLPGLRDLVLSGCSWIAVSALCSSSCPLLRTLDVQWVEGLKDAQMRDLLSPPTDNRPGQMDNRSKLRNIVELRLAGLDITDVSLRLIIRHMPLLSKLQLSYCNHINDQSINLLTAVGTTTRDSLTEVNLSDCNKVTDLCLSFFKRCGNICHIDLRYCKQVTKEGCEQFIAEMSVSVQFGQVEEKLLQKLS

How the values were obtained:
H3K36me2 peptide = assay: Fluorescence coupled demethylation assay; assay type: biochemical; conditions: for efficiency of demethylation of H3K36me2 peptide: bacterially expressed fragment
Description: (§1) For assay of in vitro histone demethylation, cells from a confluent 15 cm dish were harvested and the cell pellet was resuspended in 5 packed cell volumes of Buffer A (10 mM HEPES pH 7.9, 1.5 mM MgCl2, 10 mM KCl, 0.5 mM DTT, and 0.2 mM PMSF) and centrifuged at 1500 rpm for 5 minutes. Buffer A was added up to a final of 3 original packed cell volumes and the suspension was incubated on ice for 10 minutes. Cells were transferred to a Wheaton A Dounce homogenizer and lysed with 10 strokes. Nuclei were pelleted by centrifuging at maximum speed for 5 min in a microcentrifuge. Nuclei were resuspended in Buffer B (20 mM HEPES, pH 7.9, 100 mM KCl, 0.5 mM DTT and 0.2 mM PMSF) and disrupted by sonication. After preclearing with 20 μl protein A-agarose beads, the supernatant was incubated with either myc- or hemagglutinin-specific monoclonal antibody (5 μg/sample) and 20 μl protein A-agarose beads overnight at 4° C., the sample was washed three times with 1 ml Buffer B and the purified immune complex was incubated overnight at 4° C. with myc or HA peptide to release Ndy1/KDM2B from the beads. Demethylation reactions were carried out in 10 mM HEPES pH 7.9, 50 mM NaCl, 1 mM α-ketoglutarate, 2 mM ascorbate, 30-70 μM Fe(NH4)2(SO4)2, 0.25 mg/ml BSA and contained 6 μg of bulk histone per 90 μl reaction. Reactions were incubated at 37° C. for 1-3 hours and analyzed by 18% SDS-PAGE and Western-blotting with histone specific antibodies.
(§2) Fluorescent assays were carried out as previously described (Couture, J. F., et al. (2007) Nat Struct Mol Biol 14, 689-95) under the reaction conditions above. One unit of enzyme activity is determined as amount of Ndy1 that produces 1 μmol of formaldehyde per min, incubated with 340 μM peptide substrate at 37° C. under the above conditions. The sequences of the H3K4(me3) and H3K36(me2) peptides used in the biochemical studies were: ART-K(me3)-QTARKST (SEQ ID NO: 79) and ATGGV-K(me2)-KPHRY (SEQ ID NO: 80) respectively and were synthesized at Tufts University Core facility.
(§3) Using a fluorescence coupled demethylation assay, a bacterially expressed mouse Ndy1 fragment containing the JmjC, CXXC and PHD domains (aa 171-707) was here shown to demethylate both H3K36me2 and H3K4me3 peptides, with high and low efficiencies respectively (FIG. 20 panel B and FIG. 22). Cloning and bacterial expression of Ndy1 fragments was accomplished using fragments 1-701 and 171-701 of mouse Ndy1, which were amplified using specific primers and were cloned directly into pET102/DTOPO vector (Invitrogen) using of the TOPO-cloning methodology. The C-terminally His-tagged fusion proteins were purified from BL21(DE3) cells using Ni2+agarose beads (QIAGEN) and according to the manufacturer instructions. Flow cytometry analysis of histone modifications was determined in HEK293 cells transfected with either pIRES-GFP-empty vector (Stratagene) or the same vector containing the wild type or the H283Y JmjC domain point mutant of Ndy1. After 48 hours, cells were harvested and fixed in 1% paraformaldehyde for 10 min. Cells were washed twice with PBS, and were permeabilized with 0.5% saponin in PBS for 20 min and were blocked with 3% bovine serum albumin (BSA). […] (Alexa Fluor 635, Invitrogen, #A31577) followed by fluorescence-activated cell sorting using a CyAn high performance flow cytometer (Dako Cytomation).

H3K4me3 peptide = assay: Fluorescence coupled demethylation assay; assay type: biochemical; conditions: bacterially expressed fragment
Description: as §1, §2, §3

bulk histone = assay: In vitro histone demethylation assay with immunoprecipitated native Ndy1 (Western blot); assay type: biochemical; conditions: mouse and human Ndy1 immunoprecipitated from MEFs and IMR90 cells
MEFs = assay: Ndy1 overexpression in serially passaged MEFs, real time PCR of p16Ink4a and p19Arf mRNA; assay type: cell-based, mouse
Description: FIG. 14 panel B is a set of bar graphs of MEFs overexpressing Ndy1 that were plated at a concentration of 10^5 cells per 6 cm dish and serially passaged. In passage P5, P10, and P15 total mRNA was isolated and analyzed by real time PCR for the relative mRNA levels of p16^Ink4a and p19^Arf. The graphs show the fold decrease of p16^Ink4a and p19^Arf mRNAs in MEFs that overexpress Ndy1 normalized to control empty-vector transduced cells from 3 independent infections.
RNA was isolated with the RNeasy mini kit (Qiagen #74104). cDNAs of these mRNAs were synthesized with RETROscript (Ambion #AM1710). PCR reactions were carried out in triplicate with iQ SYBRGreen Supermix (Bio-Rad #170-8882) in an Opticon2 continuous fluorescence detector (MJ Research). The following set of primers have been used to amplify the mouse: Ezh2: F-5′-ACTGCTGG CACCGTCTGATG-′3 (SEQ ID NO: 38) and R-5′-TCCTGAGAA ATAATCTCCCCACAG-′3 (SEQ ID NO: 39),
p16^Ink4a: F-5′-GTGTGCATGA CGTGCGGG-′3 (SEQ ID NO: 42) and R-5′-GCAGTTCGA ATCTGCACCGTAG-′3 (SEQ ID NO: 43), p19^Arf: F-5′GCTCTGGCT TTCGTGAACATG-′3 (SEQ ID NO: 44) and R-5′-TCGAATCTG CACCGTAG′TTGAG'3 (SEQ ID NO: 45),
Replicative senescence is characterized by the dramatic upregulation of p16^Ink4a (>100-fold, FIG. 16) and p19^Arf (>10-fold). Since, p16^Ink4a inhibits the cyclin D/CDK4-6 complex that mediates the phosphorylation of Rb at Ser807/811, and Ndy1 promotes the phosphorylation of Rb at this site as shown in Examples herein, whether the phosphorylation of Rb in Ndy1-transduced MEFs can be linked to a defect in the induction of the Ink4a/Arf locus was tested. To address this question, the relative levels of p16^Ink4a and p19^Arf mRNA in passaged MEFs stably expressing Ndy1 were determined in examples herein.

HEK293 cells = assay: Flow cytometry of global histone modifications in HEK293 cells transfected with Ndy1; assay type: cell-based, human; conditions: HEK293 cells transiently transfected with Ndy1
From the text: as §3, with “Ndy1.” for “Ndy1. After 48 hours, cells were harvested and fixed in 1% paraformaldehyde for 10 min. Cells were washed twice with PBS, and were permeabilized with 0.5% saponin in PBS for 20 min and were blocked with 3% bovine serum albumin (BSA).”
To confirm the activity and specificity of the Ndy1 histone demethylase in vivo, flow cytometry was used to quantitatively assess the global levels of histone H3K36me2 and H3K4me3 in HEK293 cells transiently transfected with Ndy1.

Molecule	efficiency of demethylation of H3K36me2 peptide (H3K36me2 peptide)	efficiency of demethylation of H3K4me3 peptide (H3K4me3 peptide)	H3K4me3 demethylase activity (bulk histone)	H3K36me2 demethylase activity (bulk histone)	attenuation of induction of p16Ink4a (MEFs; passage 5, relative to empty vector transduced MEFs)	reduction of induction of p19Arf (MEFs; passage 10)	attenuation of induction of p16Ink4a (MEFs; passage 10, relative to empty vector transduced MEFs) [%]	reduction of induction of p19Arf (MEFs; passage 15) [%]	attenuation of induction of p16Ink4a (MEFs; passage 15, relative to empty vector transduced MEFs) [%]	specific activity towards the H3K36me2 versus the H3K4me3 peptide (H3K36me2 peptide; Ndy1 fragments expressed in E. coli)	histone H3K4me3 demethylase activity in vivo (HEK293 cells)	histone H3K36me2 demethylase activity in vivo (HEK293 cells)
B1	high	low	–	–	–	–	–	–	–	–	–	–
B2	failed to demethylate	failed to demethylate	–	–	–	–	–	–	–	–	–	–
B3	–	–	weak	strong	about 55%	about 43%	~62	~34	~90	three times higher	weak	strong

Source: patent publication US20110008302A1, “Compositions and methods for immortalizing cells and screening for anti-cancer agents” (priority 2007, published 2011)
